Assay results from patent US6127136A, “Detection of dioxin-like compounds by detection of transformed Ah receptor/ARNT complex” (Paracelsian, Inc., priority 1996, dated 2000).

Experiments:
[1] = molecular target: transformed Ah receptor/ARNT complex (Cavia porcellus, UniProt Q6J287); assay: mini-Ah immunoassay with anti-ARNT detection of transformed Ah receptor/ARNT complex; type: biochemical, guinea pig (male Hartley, hepatic cytosol); design: AHR/ARNT heterodimer on DRE gel, anti-ARNT detection; in some samples recombinant baculovirus ARNT (Bradfield) added; conditions: Example 4
Procedure: (§1) Male Hartley guinea pigs weighing 300-350 g were obtained from Cornell Research Animal Resources, Cornell University, Ithaca, N.Y. Guinea pigs were anaesthetized and killed with carbon dioxide. Livers were perfused in situ with 100 mL ice-cold perfusion buffer, excised, trimmed of connective tissue, poorly perfused liver and gall bladder and weighed. The liver was minced and five mL of ice-cold HEDG per gram liver were added and the whole homogenized in a 50 mL homogenizer with teflon pestle using at 200 rpm for a total of seven strokes. Crude homogenate was centrifuged at 12,500 RPM in 50 mL tubes in a JA17 rotor in a Beckman J2-MI preparative centifuge at 4 degrees C for 20 minutes.
(§2) For a typical mini-Ah immunoassay utilizing 12 samples, 5 mL of Transformed Ah Receptor Affinity Gel slurry described above was pipeted into a 50 mL conical tube. The slurry was washed with 40 mL HEDG and centifuged at 1000 g for 5 min, the supernatant withdrawn and discarded, the pellet washed with 40 mL HEDG, and centrifuged again. After the second centrifugation all but 5 mL of supernatant was withdrawn and the gel thus resuspended in the original volume. 10 mL guinea pig hepatic cytosol was thawed. The thawed cytosol was pooled and then divided into two 5 mL groups and treated with either 5 uL DMSO or 5 uL 10 uM TCDD in DMSO.
(§3) Assembly of transformation mixture:In the preferred embodiment of the mini-Ah immunoassay, each sample was composed of one 1.5 mL microfuge tube with the following sequential additions: 90 uL 4 M NaCl/HEDG, 400 uL Transformed Ah Receptor Affinity Gel slurry and 800 uL cytosol (treated with DMSO or TCDD as described above). The three components described above are the minimum components added at that step of the mini-Ah immunoassay. Any additional materials, such as ARNT, anti-ARNT and anti-Rabbit/alkaline phosphatase conjugate, were sometimes also added at this time as described in the specific examples. After assembly of the samples, the tubes were capped and the samples incubated at room temperature for 2 hours with gentle rocking to allow transformation of the Ah receptor to take place, interaction of transformed Ah receptor and ARNT, and binding of the transformed Ah receptor as a heteromer to the DRE oligonucleotide contained on the Transformed Ah Receptor Affinity Gel.
Immunoprobing of transformed Ah receptor: The nitrocellulose membrane was then removed from the ELIFA apparatus, rinsed briefly with water, and placed in 20 mL blocker containing test antibody. All antibodies were incubated with the nitrocellulose membrane for one hour at room temperature. When the test antibody was anti-Ah receptor/alkaine phosphatase conjugate, 100 uL anti-Ah receptor/alkaline phosphatase conjugate (1:200), per 20 mL blocker was used. When anti-ARNT was added to the transformation mixture, anti-Rabbit/alkaline phosphatase conjugate (Sigma, St. Louis, Mo.) diluted 1:1000 (20 uL to 20 mL blocker) was used to probe the membrane. When ARNT, anti-ARNT and anti-Rabbit or anti-ARNT and anti-Rabbit was added to the transformation mixture, the Immunoprobing step was eliminated.
Immunodetection and densitometry: In all cases the nitrocellulose membrane was rinsed prior to immunodetection 3 times for 5 min each with 100 mL TBST, briefly washed in AP development buffer and developed in freshly made BCIP/NBT developer for 5 min, whereupon the color reaction was stopped by washing the membrane in water.
Quantitative data were obtained by scanning the dried membrane in a Microtek 600ZS scanner in gray scale, 300 dpi, 0% brightness, 0% contrast. Densitometric measurements of the dot-blots were made using ScanAnalysis software (Biosoft, Cambridge U.K.).
Cytosol and DRE affinity gel are prepared as described above. Cytosol is dosed with 1:1000 v/v DMSO (-) or 1:1000 v/v 10 uM 2,3,7,8-tetrachlorodibenzo-p-dioxin in DMSO (+).
Immunoprobing of transformed Ah receptor is as described above with the following probes. […]

transformed Ah receptor = molecular target: T1, transformed Ah receptor (Cavia porcellus, UniProt Q6J287); assay: mini-Ah immunoassay (DRE affinity gel, dot-blot spot density), with or without added recombinant ARNT; type: biochemical, guinea pig (male Hartley, hepatic cytosol)
T1 construct: TCDD-transformed receptor captured as heterodimer on DRE-oligonucleotide gel; recombinant ARNT added in some protocols
Procedure: as §1
Procedure for the mini-Ah Immuno Assay
Preparation of Buffers: 155 uM TCDD stock was prepared by dissolving 1 mg 2,3,7,8-tetrachloro-dibenzo-p-dioxin (Cambridge Isotope Labs) in 20 mL DMSO (dimethylsulfoxide) overnight. 10 uM working dilution of TCDD was prepared by diluting 0.129 mL of the stock with 1.871 mL DMSO. 4M NaCl/HEDG was prepared by adding 116.88 g sodium chloride to 300 mL HEDG and adjusting the volume to 500 mL with HEDG. 0.3 M NaCl/HEDG was prepared by diluting 1.5 mL 4 M NaCl/HEDG to 20 mL with HEDG 0.6 M NaCl/HEDG was prepared by diluting 3.0 mL 4 M NaCl/HEDG to 20 mL with HEDG TBST was prepared by dissolving 1.18 g Tris-base, 6.35 g Tris-HCl, 8.76 g NaCL, and 2 mL Tween 20 in 800 mL water, adjusting volume to 1000 mL. Blocker was prepared by dissolving 10 g non-fat dry milk (Carnation) in 200 mL TBST. AP development buffer was prepared by dissolving 11 g Tris-base, 1.6 g Tris-HCl, 5.84 g Sodium Chloride, 10.2 g Magnesium Chloride hexahydrate, in 800 mL water and adjusting the volume to 1000 mL. BCIP stock was prepared by dissolving 100 mg BCIP (5-Bromo-4-Chloro-3-Indolyl Phosphate) in 2 mL N,N-Dimethylformamide, aliquoting into 66 uL portions, and freezing at -20 C until use. NBT stock was prepared by dissolving 250 mg NBT (Nitro Blue Tetrazolium) in 25 mL water, aliquoting into 660 uL proportions, and storing at -20 C until use. BCIP/NBT developer was prepared immediately before use by mixing one 66 uL aliquot of BCIP and one 660 uL aliquot of NBT in 20 mL AP development buffer.
as §2, §3
Isolation transformed Ah receptor: After the 2 hour incubation the mixtures were pipetted into the empty column barrels and allowed to drain. […]

[2] = test system: Ah receptor/ARNT complex (TCDD-transformed, endogenous in cytosol); assay: ELONA; conditions: EC50 is for TCDD dose, not DNA; 30 C, Ah-ELISA on neutravidin plate, anti-ARNT detection

T1 sequence (Q6J287 10-846): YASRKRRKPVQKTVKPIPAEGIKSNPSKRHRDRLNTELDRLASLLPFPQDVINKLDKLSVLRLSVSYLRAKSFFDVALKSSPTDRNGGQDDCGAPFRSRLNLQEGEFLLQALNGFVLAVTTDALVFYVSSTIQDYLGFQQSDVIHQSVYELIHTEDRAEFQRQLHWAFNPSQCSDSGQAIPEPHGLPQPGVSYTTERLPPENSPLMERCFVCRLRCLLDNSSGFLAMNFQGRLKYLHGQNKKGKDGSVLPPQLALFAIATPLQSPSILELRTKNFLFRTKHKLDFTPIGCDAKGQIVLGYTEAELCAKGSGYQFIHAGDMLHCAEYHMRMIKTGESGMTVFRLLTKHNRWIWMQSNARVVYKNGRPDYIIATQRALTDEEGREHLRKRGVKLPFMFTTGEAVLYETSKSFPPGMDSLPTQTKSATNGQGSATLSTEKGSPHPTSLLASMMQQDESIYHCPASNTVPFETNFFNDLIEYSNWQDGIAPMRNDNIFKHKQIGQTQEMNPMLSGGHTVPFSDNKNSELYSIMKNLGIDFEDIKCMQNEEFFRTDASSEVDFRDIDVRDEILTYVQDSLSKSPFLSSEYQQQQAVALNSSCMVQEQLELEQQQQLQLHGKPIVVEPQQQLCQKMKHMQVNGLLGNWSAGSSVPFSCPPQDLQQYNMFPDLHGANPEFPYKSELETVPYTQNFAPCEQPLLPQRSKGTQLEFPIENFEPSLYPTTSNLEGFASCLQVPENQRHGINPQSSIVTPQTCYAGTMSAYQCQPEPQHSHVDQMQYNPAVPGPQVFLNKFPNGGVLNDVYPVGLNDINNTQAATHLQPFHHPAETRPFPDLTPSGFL
T1 sequence (Q0WXX3 1-790 partner): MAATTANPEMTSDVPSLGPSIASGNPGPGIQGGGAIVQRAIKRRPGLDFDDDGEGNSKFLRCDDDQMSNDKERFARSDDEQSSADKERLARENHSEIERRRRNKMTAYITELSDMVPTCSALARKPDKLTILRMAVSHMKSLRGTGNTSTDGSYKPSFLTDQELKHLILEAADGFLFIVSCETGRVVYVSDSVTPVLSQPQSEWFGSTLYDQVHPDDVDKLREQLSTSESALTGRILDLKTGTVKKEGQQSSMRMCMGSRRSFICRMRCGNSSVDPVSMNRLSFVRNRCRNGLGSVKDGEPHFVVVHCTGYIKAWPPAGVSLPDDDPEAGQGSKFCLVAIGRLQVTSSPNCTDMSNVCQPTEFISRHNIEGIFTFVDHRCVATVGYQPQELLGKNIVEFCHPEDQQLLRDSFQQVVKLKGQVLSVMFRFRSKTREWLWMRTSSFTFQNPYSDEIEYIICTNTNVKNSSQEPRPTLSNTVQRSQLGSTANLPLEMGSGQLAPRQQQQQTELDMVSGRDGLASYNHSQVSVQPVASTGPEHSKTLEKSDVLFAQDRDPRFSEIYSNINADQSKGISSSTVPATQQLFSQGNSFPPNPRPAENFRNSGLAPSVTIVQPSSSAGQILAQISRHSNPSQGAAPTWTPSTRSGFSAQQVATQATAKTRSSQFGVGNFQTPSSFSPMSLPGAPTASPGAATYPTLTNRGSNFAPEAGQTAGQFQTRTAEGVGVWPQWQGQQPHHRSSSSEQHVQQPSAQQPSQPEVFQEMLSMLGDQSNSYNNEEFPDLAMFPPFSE
transformed Ah receptor/ARNT complex, sequence (Q6J287 10-846): as the sequence (Q6J287 10-846) above
transformed Ah receptor/ARNT complex, sequence (Q0WXX3 1-790 partner): as the sequence (Q0WXX3 1-790 partner) above
transformed Ah receptor/ARNT complex, sequence (P27540 whole entry partner, the tested form may be a part): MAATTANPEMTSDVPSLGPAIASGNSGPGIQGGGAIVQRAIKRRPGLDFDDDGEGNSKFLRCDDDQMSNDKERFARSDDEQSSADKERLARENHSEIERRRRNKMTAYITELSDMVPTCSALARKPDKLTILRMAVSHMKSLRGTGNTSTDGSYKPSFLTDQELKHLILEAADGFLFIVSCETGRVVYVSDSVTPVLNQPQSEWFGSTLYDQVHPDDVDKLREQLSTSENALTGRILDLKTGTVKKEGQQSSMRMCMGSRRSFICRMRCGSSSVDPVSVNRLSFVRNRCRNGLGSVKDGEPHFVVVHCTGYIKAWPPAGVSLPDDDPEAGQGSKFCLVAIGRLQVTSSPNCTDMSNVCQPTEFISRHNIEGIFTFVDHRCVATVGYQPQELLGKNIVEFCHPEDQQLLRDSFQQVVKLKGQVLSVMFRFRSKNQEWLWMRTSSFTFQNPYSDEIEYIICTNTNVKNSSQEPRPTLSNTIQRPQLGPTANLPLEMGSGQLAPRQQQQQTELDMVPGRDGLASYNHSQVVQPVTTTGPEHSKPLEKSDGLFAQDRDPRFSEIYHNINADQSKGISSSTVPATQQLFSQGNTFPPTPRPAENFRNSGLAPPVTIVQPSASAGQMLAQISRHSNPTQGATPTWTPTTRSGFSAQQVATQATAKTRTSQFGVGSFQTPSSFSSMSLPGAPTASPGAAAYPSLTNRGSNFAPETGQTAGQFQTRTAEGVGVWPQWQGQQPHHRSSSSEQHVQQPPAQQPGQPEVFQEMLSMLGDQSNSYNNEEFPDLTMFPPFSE

Substance | effect of ARNT addition on response [1] | effect of ARNT amount on response (transformed Ah receptor; 0.5 ug vs 2 ug ARNT, Example 2) | effect of ARNT addition on non-TCDD dependent transformation of the Ah receptor (transformed Ah receptor; ARNT 2 ug/assay, Example 1) | increase of TCDD-dependent response by ARNT addition (transformed Ah receptor; ARNT 2 ug/assay, Example 1) | EC50 [2]
ARNT: Purified recombinant ARNT (Ah Receptor Nuclear Translocator) | improves response | 0.5 ug arnt gave less response than 2 ug ARNT | did not increase non-TCDD dependent transformation of the Ah receptor | 354% | –
B-DRE (DRE-D/B-ERD) | – | – | – | – | 0.5 nM
